Test results as given in article PMC12480156, “From biophysical interaction to structural modeling: bi-terminal G and TGS domains drive rice OsYchF1-OsGAP1 complex formation” (Botanical Studies, 2025).

Tests used:
[1] = biological target: GST-OsGAP1 (rice (Oryza sativa)) (UniProt Q6YWF1); assay: ITC; MicroCal ITC200; 400–500 µM (His)6-OsYchF1, its truncated derivatives or (His)6-tag in the syringe titrated into 20–30 µM GST-OsGAP1 or GST-tag in the chamber; 20 mM Tris-HCl pH 7.5, 20 mM NaCl, 1 mM DTT; 25 °C
[2] = biological target: T1, GST-OsGAP1 (rice (Oryza sativa), UniProt Q6YWF1 1-165); assay: as above; details: both partners purified
T1 construct: also called GST-tagged OsGAP1; source: E. coli BL21 (DE3) pLysS, purified; not shown: GST, N-terminal, kept
T1 sequence (looked up): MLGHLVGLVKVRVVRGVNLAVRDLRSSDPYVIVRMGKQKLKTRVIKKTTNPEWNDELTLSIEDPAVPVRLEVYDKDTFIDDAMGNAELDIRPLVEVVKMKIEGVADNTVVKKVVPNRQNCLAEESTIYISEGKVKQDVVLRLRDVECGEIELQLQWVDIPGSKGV

In the case of “(His)6-OsYchF1 (No TGS domain) (from UniProt Q6Z1J6 1-302) (domain or fragment)”, the Kd [1] is reported as 98.7 µM, the dH [1] is reported as -0.7 kcal/mol and the stoichiometry N [1] is reported as 0.2.

“full-length (His)6-OsYchF1 (from UniProt Q6Z1J6 1-394) (natural protein)” gave a Kd [1] of 103 µM and a stoichiometry N [1] of 0.6.

B1: (His)6-OsYchF1 (TGS domain) (domain or fragment, rice (Oryza sativa), UniProt Q6Z1J6 303-394, looked up)
chain: HLIYFFTAGPDEVKCWQIRRQTKAPQAAGTIHTDFERGFICAEVMKFDDLKELGSESAVKAAGKYRQEGKTYVVQDGDIIFFKFNVSGGGKK
notes: OsYchF1, rice, TGS domain, aa 303-394; also called (His)6-TGS; source: E. coli BL21 (DE3) pLysS, purified; not shown: His6, N-terminal, kept; thioredoxin (Trx), N-terminal, kept; S-tag, N-terminal, kept
For B1, the Kd [2] was 5.1 ± 2.3 µM, the dH [2] was -3.4 ± 1.1 kcal/mol and the “stoichiometry N” value [2] was 0.6 ± 0.1.

B2: (His)6-OsYchF1 (G domain) (domain or fragment, rice (Oryza sativa), UniProt Q6Z1J6 1-128, looked up)
chain: MPPKASKKDAAPAERPILGRFSSHLKIGIVGLPNVGKSTFFNIVTKLSIPAENFPFCTIDPNEARVYVPDERFDWLCQLYKPKSEVSAYLEINDIAGLVRGAHAGEGLGNAFLSHIRAVDGIFHVLRA
notes: OsYchF1, rice, G domain, aa 1-128; also called (His)6-G; source: E. coli BL21 (DE3) pLysS, purified; not shown: His6, N-terminal, kept; thioredoxin (Trx), N-terminal, kept; S-tag, N-terminal, kept
In the case of B2, the Kd [2] is reported as 11.9 ± 6.7 µM, the dH [2] is reported as -2 ± 1.4 kcal/mol and the “stoichiometry N” value [2] is reported as 0.5 ± 0.7.
